Assay results published in the supplement of paper PMC10567573.

B1: ATL3 (parent)
chain: FSFRYQQELEEEIKELYENFCKHN
B2: PDLIM4 (parent)
chain: FLDERLYCESHAKARVKPPEGYDV

Variants of: B1
Assay: protein stability index of a GFP-peptide fusion (GPS, HEK-293T) (PSI 1-6); higher = more stable
Conditions: c terminus: a fixed tail appended
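Also: lentivirally expressed fusions sorted by FACS into six bins by GFP to DsRed ratio, PSI derived from sequencing read proportions per bin multiplied by bin number.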

Protein stability index of substitutions, site by site:
F20: W 1.9, Y 2.38
K22: I 2.23, Y 2.01, N 2.54, S 2.33, G 2.58, F 2.08, W 1.35, V 1.99, P 1.97, T 3.02, C 2.06, Q 2.93, M 2.24, A 2.45, E 2.41, H 2.04, L 2.77, R 2.12, D 2.42
H23: S 2.1, C 1.84, I 2.43, N 2.3, M 2.49, K 3.21, W 2.14, Q 2.75, D 2.12, L 2.73, P 1.6, A 2.25, E 2.63, G 2.04, F 2.19, R 1.86, T 3.04, Y 2.49
C21: A 3.33, G 2.55, L 2.13, Y 1.77, N 2.58, V 2.62, M 2.32, E 3.12, T 1.97, R 2.46, H 2.18, I 2.05, Q 3.08, W 2.31, K 2.66, F 2.1, D 3.33, S 2.48, P 2.11
N24: R 2.42, P 1.96, L 2.64, E 1.93, Y 2.61, V 3.5, W 2.12, C 2.77, T 3.13, H 2.64, D 2.49, I 2.82, F 3.38, S 2.14, M 2.49, K 2.48, A 2.37, G 2.36

Variants of: B2
Assay: as above
Conditions: c terminus: a fixed tail appended

Protein stability index: each site, then its substitutions
A14: Y 2.23, N 1.39, L 1.75, M 1.76, H 2.56, K 1.07, S 2.01, I 2.02, R 2.57, Q 2.29, D 1.36, G 2.7, E 1.31, F 1.65
F1: I 4.27, A 4.23, V 3.92, K 4.43, Y 1.3, W 2.5, P 5, S 4.63, N 4.21, D 4.34, R 4.28, H 4.26, L 3.89, E 4.68, C 3.43, M 4.29, T 4.72, Q 4.58
E4: Y 2.02, V 2.06, L 2.34, D 1.71, R 3.33, C 3.33, S 5.15
A12: D 2.48, E 1.47, I 1.6, G 2.68, N 1.42, L 1.28, Y 1.77, F 3.29, T 2.04, M 1.53, C 1.23, H 1.77, S 1.42, R 1.82, Q 1.37
R15: P 1.26, Y 1.58, A 2.13, K 2.18, M 1.18, F 2.33, E 1.34, T 1.67, W 3.92, D 1.93, C 1.97, H 3.03, G 1.7, N 1.53, L 2.41, V 1.77, Q 2.41, I 2.03
H11: E 1.34, S 1.98, V 1.72, T 1.99, C 1.04, N 1.86, M 2.23, L 1.48, A 1.85, Y 2.18, D 2.39, F 1.48, K 1.64, R 1.79, I 2.19, Q 1.34
C8: I 1.41, L 2.26, Y 2.17, M 1.64, G 3.41, D 3.78, Q 2.44, R 1.81, A 1.53, V 2.28, K 1.58, W 2.14, H 2.71, N 2.59, T 2.62, F 2.3, E 3.52, S 2.39
S10: H 1.58, N 1.26, Q 1.88, I 2.17, C 1.95, K 2.12, T 1.79, E 2.1, W 3.67, M 2.54, P 2.32, A 1.44, G 1.97, F 1.61, Y 2.75, D 2.01, L 2.69, V 1.4
R5: I 2.24, V 2.35, P 2.98, W 3.09, N 1.49, L 1.98, Y 1.42, E 2.42, M 2.33, D 2.11, A 1.86, K 1.66, F 1.52, S 2.37, T 1.3, G 2.47
L6: S 2.47, R 1.45, V 1.59, D 4.54, G 3.42, H 1.72, E 3.09, I 1.97, K 2.09, P 1.7, N 3.08, M 2.87, Q 2.5, F 3.03, T 2.55
V16: Q 1.22, G 1.57, W 2.7, I 1.62, M 1.53, N 1.96, C 1.43, P 1.64, H 1.92, K 3.09, R 1.5, T 3.71, S 3.79, Y 1.51, D 2.14, A 1.75
D3: T 1.31, L 2.27, Q 1.53, M 1.48, V 2.5, S 1.03, E 1.94, I 1.94, F 2.66, C 3.79, N 1.21, G 1.92, A 2.14, K 2.49, R 2.32, H 2.39, P 2.64
E9: K 1.42, A 1.57, H 2.13, Q 1.44, M 2.41, W 1.22, V 1.83, S 1.97, N 2.58, G 1.74, F 1.49, D 1.8, T 1.31, L 2.34, Y 2.13
Y7: M 3.6, K 4.06, I 3.6, R 3.99, T 5.4, L 3.18, A 2.63, H 4.05, Q 4.26, N 4.26, G 2.04, P 4.5, E 4.06, D 4.71, C 3.66, F 2.79, V 3.85, S 3.89
K17: E 2.08, A 1.91, D 1.27, H 1.88, L 2.56, I 1.33, F 2.12, C 1.99
K13: G 1.72, C 1.21, H 2.18, Q 1.61, P 2.24, I 2.71, Y 2.63, L 1.45, M 2.85, D 1.32, N 1.36
L2: D 4.28, S 3.37, R 2.96, Q 2.12, H 2.24, W 2.47, V 2.42, G 3.4, I 1.38, T 2.54, Y 3.53, K 3.99, P 2.98, N 3.48, M 1.67, C 1.96, A 1.81, F 3.46
